Drawing on patent US20220259325A1, this text covers C3b deposition from 1% normal human serum on mannan-coated wells (IC50) for two substances.

The target of test [1] is human MASP-2 (protein in human serum or plasma) (human).
Test [2] addresses human MASP-1 (protein in human serum) (human).

Chain of human MASP-1 (protein in human serum) (human) (chain, as listed by the source): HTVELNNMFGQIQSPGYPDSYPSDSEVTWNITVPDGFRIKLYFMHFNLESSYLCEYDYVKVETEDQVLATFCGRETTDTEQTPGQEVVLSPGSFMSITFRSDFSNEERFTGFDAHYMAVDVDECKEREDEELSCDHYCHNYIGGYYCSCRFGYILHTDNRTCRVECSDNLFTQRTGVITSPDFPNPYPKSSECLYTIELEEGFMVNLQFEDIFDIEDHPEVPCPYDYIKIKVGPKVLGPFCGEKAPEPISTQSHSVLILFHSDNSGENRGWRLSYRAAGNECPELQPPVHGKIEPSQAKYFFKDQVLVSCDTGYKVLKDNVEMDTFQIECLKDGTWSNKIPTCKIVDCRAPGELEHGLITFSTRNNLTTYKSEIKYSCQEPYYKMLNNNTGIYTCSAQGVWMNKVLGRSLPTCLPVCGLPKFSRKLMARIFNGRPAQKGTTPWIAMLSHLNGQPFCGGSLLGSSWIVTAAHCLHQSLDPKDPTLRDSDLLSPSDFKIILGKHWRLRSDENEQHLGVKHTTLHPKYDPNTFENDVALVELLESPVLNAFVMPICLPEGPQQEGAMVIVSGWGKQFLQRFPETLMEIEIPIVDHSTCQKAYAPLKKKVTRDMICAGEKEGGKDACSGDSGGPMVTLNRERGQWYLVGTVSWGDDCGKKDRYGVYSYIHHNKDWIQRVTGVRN

As for “SGMI-2Fc (mature polypeptide fusion comprising SGMI-2, linker #1 and human IgG1-Fc) (Fc fusion)”, in test [1], the C3b deposition from 1% normal human serum on mannan-coated wells (IC50) stood at 300 nM.

Consider “SGMI-1Fc (mature polypeptide fusion comprising SGMI-1, linker #1 and human IgG1-Fc) (Fc fusion)”, for which the C3b deposition from 1% normal human serum on mannan-coated wells (IC50) in test [2] was found to be 27 nM.
